Data: the supplement of paper PMC10201428
± gives the standard deviation of the averaged measurements.

Key:
[1] = system: VchCAST RNA-guided transposition machinery (E. coli BL21(DE3) host, lacZ target); assay: relative integration efficiency (T-RL orientation) vs wild-type transposon end (log2 (normalized fold change)); transposon end mutated: right end (5 bp flank + 75 bp right end); higher = more efficient transposition
How it was run: (§1)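 Barcode abundances in input plasmids and in genomic integration junctions were obtained by PCR amplification and Illumina sequencing. These came from E. coli BL21(DE3) co-transformed with a T7-driven effector plasmid and a pUC57 donor carrying 1549 left-end or 1849 right-end transposon variants, then plated with 0.1 mM IPTG at 37°C for 18 h. Relative integration efficiency is the output/input fold change, normalised to reference barcodes and log-transformed.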

[2] = system: VchCAST RNA-guided transposition machinery (E. coli BL21(DE3) host, lacZ target); assay: relative integration efficiency (T-LR orientation) vs wild-type transposon end (log2 (normalized fold change)); transposon end mutated: right end (5 bp flank + 75 bp right end); higher = more efficient transposition
How it was run: as §1

Sequence	relative integration efficiency (log2) [1]	relative integration efficiency (log2) [2]
ACATTTGTGGATACAACCCTAAAATGATAATTACACCCATAAATTCATCATTATCACCCCCAATTTAACTATAACGCTCTGATCATAGTCAGACCAACATTGCTACGACCCGTATTCGCACCGACAC	-4.53 ± 0.011	-1.47 ± 0.4
ACATTTGTTGATACCACCATAAAATGATAATTACCCCCATAAATTGATAATTATCACCCCCATAAATTGATATTGCCTCTGATCATAGTCAGACCAACATTGCTACGACCCGTATTCGCACCGACAC	0.364 ± 0.15	1.35 ± 0.29
ACATTTGTTGATACAACCATAAAATGATACGGCCACCCATAAATTGATACGGCTCACACCCATAAATTGATAGGTACTCTGATCATAGTCAGACCAACATTGCTACGACCCGTATTCGCACCGACAC	-1.54 ± 0.28	0.469 ± 0.35
ACATTTGTTGATACAACCATAAAATGATAATTACACCCATAAATTGATAATTATCAACAACATAAATTGATATTGCCTCTGATCATAGTCAGACCAACATTGCTACGACCCGTATTCGCACCGACAC	-0.911 ± 0.21	1.36 ± 0.2
ACATTTGTTGATACAACCATAAAATGATAATTACACCCATAATAACATAATTATCACACCCATAAATTGATATTGCCTCTGATCATAGTCAGACCAACATTGCTACGACCCGTATTCGCACCGACAC	-2.11 ± 0.092	-1.45 ± 0.04
ACATTTCTCGATACAACCATAAAATGATAATTACACCCATAAATTCATCATTATCACACCCAATTTAACTATAACGCTCTGATCATAGTCAGACCAACATTGCTACGACCCGTATTCGCACCGACAC	-3.05 ± 0.46	0.303 ± 0.055
ACATTTGTTGATACAACCATAAAATCATAATTACCCCCATCAATTGATAATTATCACACCCCATTTAACTATAACGCTCTGATCATAGTCAGACCAACATTGCTACGACCCGTATTCGCACCGACAC	-5.34 ± 0.18	-1.5 ± 0.28
ACATTTGTTGATACAAACATAAAATGATAATTACACACATAAATTGATAATTATCACACACATAAATTGATATTGCCTCTGATCATAGTCAGACCAACATTGCTACGACCCGTATTCGCACCGACAC	-1.41 ± 0.22	-0.182 ± 0.14
ACATTTGTTGATACAACCATAAAATTCGCATTACACCCATAAATTGATAATTATCACACCCATAAATTGATATTGCCTCTGATCATAGTCAGACCAACATTGCTACGACCCGTATTCGCACCGACAC	-2.95 ± 0.25	-2.45 ± 0.2
ACATTTGTTGATACAACCATATAATGATAATAACACCGATAAAATGATAATTATCACACCCAATTTAACTATAACGCTCTGATCATAGTCAGACCAACATTGCTACGACCCGTATTCGCACCGACAC	-1.46 ± 0.28	1.74 ± 0.093
ACATTTGTTGATACACCCATAAATTGATATTGCCACCCATAAATTGATAATTATCACACCCATAAATTGATATTGCCTCTGATCATAGTCAGACCAACATTGCTACGACCCGTATTCGCACCGACAC	-0.842 ± 0.076	-0.216 ± 0.095
ACATTTCTCGATACAACCATAAAATGATAATTACACCCATAAATTGATAATTATCACACCCAATTTAACTATAACGCTCTGATCATAGTCAGACCAACATTGCTACGACCCGTATTCGCACCGACAC	-1.57 ± 0.34	1 ± 0.028
ACATTTGTTGATACAACCATAAAATGATAATTACACCCATAAATGGATCATTATCACCCCCAATTTAACTATAACGCTCTGATCATAGTCAGACCAACATTGCTACGACCCGTATTCGCACCGACAC	-1.44 ± 0.18	1.15 ± 0.28
ACATTTGTTGATACACCCATAAATTGATAATTACAACCATAAAATGATAATTATCACAACCATAAAGTGATATTTACTCTGATCATAGTCAGACCAACATTGCTACGACCCGTATTCGCACCGACAC	-0.736 ± 0.32	-0.912 ± 0.79
ACATTTGTTGATACAACCATAAAATGATCATTACACCCATAAATTGATCATTATCACACCCATAAATTGATCTTGCCTCTGATCATAGTCAGACCAACATTGCTACGACCCGTATTCGCACCGACAC	-1.214 ± 0.0037	-0.7415 ± 0.00084
ACATTTGTTGATACAACCATAAAGTGATATTTACAACCATATATTGATATCTCTCACAACCATAAAATGATAATTACTCTGATCATAGTCAGACCAACATTGCTACGACCCGTATTCGCACCGACAC	-0.337 ± 0.17	-0.162 ± 0.091
ACATTTGTTGATACCACCATAAAATGATAATTCCACCCCTACATTGATAATTATCACACCCAATTTAACTATAACGCTCTGATCATAGTCAGACCAACATTGCTACGACCCGTATTCGCACCGACAC	-3.78 ± 0.24	-0.121 ± 0.44
ACATTTGTTGATACAACCATAAAATGATAATTACCCCCATAAATTGATAATTATCCCACCCAATTTAACTATAACGCTCTGATCATAGTCAGACCAACATTGCTACGACCCGTATTCGCACCGACAC	-1.15 ± 0.18	2.06 ± 0.12

Sequence	relative integration efficiency (log2) [1]	relative integration efficiency (log2) [2]
ACATTTGTGGATACAACCATAAAATGATAATTACACCCATAAATGGATCATTATCACACCCAATTTAACTATAACGCTCTGATCATAGTCAGACCAACATTGCTACGACCCGTATTCGCACCGACAC	-1.53 ± 0.23	1.01 ± 0.2
ACATTTGTTGATACAACCATAAAATGATAATTACACCCATAAATTGATAATTATCACACCCATAAATTGATATTGCCTCTGATCATACAACCATAAAATGATAATTAGTCAGACCAAGCACCGACAC	0.403 ± 0.3	-0.751 ± 0.19
ACATTTGTTGATACAACCATAAAATGATAATTACACCCATAAATTGATAATTATCACACCCATAAATTGATATTGCCTCTGATAACTTCGTATAAGGTATACTATACGAAGTTATTCGCACCGACAC	-0.433 ± 0.28	1.55 ± 0.38
ACATTTGTTCATACAACCATAAAATGATAATTACACCCATAAATTGATCATTATCACACCCAATTTAACTATAACGCTCTGATCATAGTCAGACCAACATTGCTACGACCCGTATTCGCACCGACAC	-1.45 ± 0.36	0.604 ± 0.17
ACATTTGTTGATACAACCATAAAATGATAATTACTCTGATCATAGTCAGACCAACATTGCTACGACCCGTATTCGCACCGACACAACGACTATATTTATGGGTCACCCATAAATTGATAATTATCAG	-1.52 ± 0.14	1.36 ± 0.37
ACATTTGTTGATACAACCATAAAATGATAATTAATAATTATTTATAATCAGCACACCCATAAATTGATAATTATCAACAAACGCCCGGTCGCGGTACTCTGATCATAGTCAGACCAACATTGCTACG	-2.43 ± 0.16	0.238 ± 0.52
ACATTTGTCGATACAACCATAAAATGATAATTACCACCCCTAAATTGATAATTATCACACCCATTTAACTATAACGCTCTGATCATAGTCAGACCAACATTGCTACGACCCGTATTCGCACCGACAC	-3.12 ± 0.048	-0.156 ± 0.26
ACATTTGTGGATACAACCATAAAATGATAATTACACCCATAAATGGATAATTATCACACCCAATTTAACTATAACGCTCTGATCATAGTCAGACCAACATTGCTACGACCCGTATTCGCACCGACAC	-0.586 ± 0.33	2.14 ± 0.031
ACATTTGTTGATACAACCATAAAATGATAATTACACCCATAAATTGATAATTATCACACCCATAAATTGATATTGCCTCTGATAACTTCGTATAATGTATGCTATACGAAGTTATTCGCACCGACAC	-0.484 ± 0.19	0.719 ± 0.031
ACATTTGTTGATACAACCATATAATGATAATAACACCCATAAAATGATAATTATCACACCCAATTTAACTATAACGCTCTGATCATAGTCAGACCAACATTGCTACGACCCGTATTCGCACCGACAC	-1.15 ± 0.33	2.16 ± 0.14
ACATTTGTGGATACAACCATAAAATGATAATTACCACCCCTACATTGATAATTATCACACCCATTTAACTATAACGCTCTGATCATAGTCAGACCAACATTGCTACGACCCGTATTCGCACCGACAC	-3.07 ± 0.21	-0.503 ± 0.055
ACATTTGTTGATACAACACGCAAATGATAATTACACCCATAAATTGATAATTATCACACCCATAAATTGATATTGCCTCTGATCATAGTCAGACCAACATTGCTACGACCCGTATTCGCACCGACAC	-4.368 ± 0.0069	-4.89 ± 2.5
ACATTTGTTGATACAACCATAAGTTGATATTTTCACCCATAAATTGATAATTATCACAACCATATATTGATATCTCCTCTGATCATAGTCAGACCAACATTGCTACGACCCGTATTCGCACCGACAC	-0.64 ± 0.15	-0.455 ± 0.14
ACATTTGTTGATACAACCATAAAATCATCATTACCCCCATAAATTGATAATTATCACACCCAATTTAACTATAACGCTCTGATCATAGTCAGACCAACATTGCTACGACCCGTATTCGCACCGACAC	-4.04 ± 0.25	-0.419 ± 0.52
ACATTTGTTGATACAACCATAAAATGATAATTACAACCATAAAGTGATATTTATCAGTGGGTATTTAACTATAACGCTCTGATCATAGTCAGACCAACATTGCTACGACCCGTATTCGCACCGACAC	-0.586 ± 0.2	2.5 ± 0.1
ACATTTGTTGATACAACCATAAAATGATAATTACCCCCATAAATTGATAATAATGACACCGAATTTAACTATAACGCTCTGATCATAGTCAGACCAACATTGCTACGACCCGTATTCGCACCGACAC	-1.7 ± 0.48	1.94 ± 0.1
ACATTTGTTGATACAACCATAAAGTGATATTTACACCCATAAATTGATAATTATCACACCCATAAATTGATATTGCCTCTGATCATAGTCAGACCAACATTGCTACGACCCGTATTCGCACCGACAC	-0.207 ± 0.081	-0.336 ± 0.44
